Patent WO2004044204A2 (dated 2004)
Blank lines part the entries; values can stand above or below the binder they belong to.

Columns and labels:
β-amyloid peptide 1-42 [1] = target: T1, β-amyloid peptide 1-42; test: competition ELISA
T1 construct: Synthesised on solid phase; It was coated on plates or used in solution; one result is told for its fibrillar form; also called Aβ42; peptide Aβ42

β-amyloid peptide 1-42 [2] = target: T1, β-amyloid peptide 1-42; test: ELISA with overlapping peptides that are fragments of Aβ42; the affinity is told for the carboxy terminal part

- Kd (β-amyloid peptide 1-42 [1]): 60 nM
B1: VHH ALZ L1-3 (VHH)
VHH: EVQLQASGGGLVQAGGSLRLSCSASASTTFSMNTMAWHRQAPGKQRSLVALIGATHSINYEDSVKGRFTISRDNAKNTVYLQMSSLKPEDTAVYYCNDWYWQMKGGSWGQGTQVTVSS
notes: Alpaca VHH, produced soluble in E. coli HB2151 from pHEN-1 and tested as culture supernatant; It was detected with anti-c-myc 9E10; also called VHH ALZ Ll-3; VHH-L1-3

- Kd (β-amyloid peptide 1-42 [2]): ~10 nM
B2: VHH ALZ V31-1 (VHH)
VHH: EVQLQASGGGSVQPGGSLRLSCAASGFIFGWSTMSWVRQAPGKGLEWVSTISGGGSATTYTDSVKGRFTISRDRAKNTLYLQMNSLKPEDTAIYYCNADVSTGFRYQRKDYWGRGTQVTVSS
notes: Alpaca VHH, produced soluble in E. coli HB2151 from pHEN-1; It was detected with anti-c-myc 9E10; also called VHH-V31-1; VHH V31-1

- Kd (β-amyloid peptide 1-42 [1]): 30 nM
B3: VHH ALZ L35 (VHH)
VHH: EVQLQASGGGLVQAGGSLRLSCAASGSTFSINVIGWYRQAPGKQRELVAGISRSGNTNYADSVEGRFTISRDYAKNTVYLQMNSLKPEDTAVYYCHSKTYLLHMYWGQGTQVTVSS
notes: Alpaca VHH, produced soluble in E. coli HB2151 from pHEN-1 and tested as culture supernatant; It was detected with anti-c-myc 9E10; also called VHH-L35; VHH L35
